Patent publication US20060024786A1, “WASP and N-WASP constructs and methods of expressing such constructs” (Cytokinetics, Inc., priority 2004, published 2006)

What was measured:
[1] = target: T1, Cdc42, PIP2, Nck and Rac1 (Homo sapiens, UniProt P60953, G12V); test: Regulation of WASP/N-WASP proteins by upstream regulators; type: biochemical; conditions: Cdc42 binds and activates the construct, which then activates Arp2/3 nucleation
T1 construct: made in house; host or cells: E. coli BL21(DE3) or BL21 STAR
T1 sequence (P60953 2-191 isoform P60953-1 G12V): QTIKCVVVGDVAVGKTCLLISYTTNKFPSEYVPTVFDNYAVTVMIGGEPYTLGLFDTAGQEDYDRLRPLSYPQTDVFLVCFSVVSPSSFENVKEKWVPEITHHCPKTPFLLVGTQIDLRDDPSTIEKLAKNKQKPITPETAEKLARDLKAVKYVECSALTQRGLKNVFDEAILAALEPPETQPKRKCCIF
Excerpt: (§1) A second class of WASP and N-WASP proteins are those in which the WH-1 and PolyPro region have been at least partially removed. Specific examples of WASP and N-WASP proteins lacking at least a part or all of the WH1 and PolyPro regions include, but are not limited to, 213 miniWASP, 199 miniWASP and 105 miniWASP (see, FIGS. 3A and 3B). These three proteins each lack some or all of the WH-1 region, and the entire PolyPro region (approximately residues 309-414 of SEQ ID NO:2). The 213 miniWASP protein thus includes, for example, amino acid residues 213-308 and 415-501 from the full length WASP sequence (SEQ ID NO:2). 199 miniWASP includes residues 199-308 and 415-501 of SEQ ID NO:2). 105 miniWASP includes residues 105-308 and 415-501 of SEQ ID NO:2).
(§2) A fourth class of WASP and N-WASP proteins that are provided are deletion mutants in which the PolyPro region is maintained but an N-terminal region (e.g., WH1 domain) is at least partially removed. Some proteins in this class are ones that include the B, CRIB/GBD, PolyPro and VCA domains but in which some or all of the WH1 has been removed. One specific example is 98N-WASP, which includes amino acids 98-501 of SEQ ID NO:4 (also assigned SEQ ID NO:12). Another specific example is the 105 WASP protein, which includes amino acids 105-501 of SEQ ID NO:10 (see FIG. 3A and 3B). […] They can also activate actin nucleation by Arp2/3.

[2] = test system: Cdc42, PIP2, Nck and Rac1; test: as above; type: biochemical; conditions: Table 2
Excerpt: as §1, §2

Arp2/3 complex = target: T2, Arp2/3 complex; test: Arp2/3-mediated actin polymerization stimulated by WASP/N-WASP proteins; type: biochemical, human; conditions: for Activate Arp2/3?: Table 2
T2 construct: prepared from an Arp2/3 source such as human platelets; from tissue; host or cells: cell extract, e.g. human platelets
Description: Samples containing candidate agents (individually or as mixtures) are placed into wells on a multi-well plate. Mix 1 is added to each of the wells and mixed with the candidate agent. A sample of Mix 2 is then introduced into each well and the resulting mixture thoroughly mixed. Typically, Mix 1 and Mix 2 are mixed in 1:1 ratio (e.g., 50 μl each of Mix 1 and Mix 2).
Actin polymerization is measured as a function of time by exciting pyrene at 365 nm and by detecting an increase in fluorescence emission at 407 nm. The change in fluorescence over time is utilized to determine a fluorescence parameter (e.g., maximal velocity, time to half maximal fluorescence intensity or area under the curve of a plot of fluorescence versus time).
In a second set of experiments, the ability of various truncated forms of WASP were compared to the activity of the full-length protein. The polymerization assays were conducted in the presence of 500 nM Cdc42, 2.5 nm purified Arp2/3 complex and 3.5 μM actin. FL-WASP, 105 WASP and the VCA (see Example 7) domain were tested. The results of these trials were plotted to obtain EC50 values. The results are provided in FIG. 6 and in the chart below.

[3] = Solubility of purified full-length protein; type: physicochemical; conditions: expressed in 293 cells, TAP-tag purification

B1: 213 miniWASP: amino acid residues 213-308 and 415-501 of full length WASP (SEQ ID NO:2) (protein, listed as Homo sapiens)
chain: RGLPAPGPSPADKKRSGKKKISKADIGAPSGFKHVSHVGWDPQNGFDVNNLDPDLRSLFSRAGISEAQLTDAETSKLIYDFIEDQGGLEAVRQEMRLPPALVPAGGLAPGGGRGALLDQIRQGIQLNKTPGAPESSALQPPPQSSEGLVGALMHVMQKRSRAIHSSDEGEDQAGDEDEDDEWD
modifications: (1)..(502) FL-WASP
[1]
  regulation by Cdc42: regulated by Cdc42

B2: 98 N-WASP: N-WASP deletion mutant, amino acids 98-501 of SEQ ID NO:4; SEQ ID NO:12 (protein, listed as Homo sapiens)
chain: FVYNSPRGYFHTFAGDTCQVALNFANEEEAKKFRKAVTDLLGRRQRKSEKRRDPPNGPNLPMATVDIKNPEITTNRFYGPQVNNISHTKEKKKGKAKKKRLTKADIGTPSNFQHIGHVGWDPNTGFDLNNLDPELKNLFDMCGISEAQLKDRETSKVIYDFIEKTGGVEAVKNELRRQAPPPPPPSRGGPPPPPPPPHNSGPPPPPARGRGAPPPPPSRAPTAAPPPPPPSRPSVAVPPPPPNRMYPPPPPALPSSAPSGPPPPPPSVLGVGPVAPPPPPPPPPPPGPPPPPGLPSDGDHQVPTTAGNKAALLDQIREGAQLKKVEQNSRPVSCSGRDALLDQIRQGIQLKSVADGQESTPPTPAPTSGIVGALMEVMQKRSKAIHSSDEDEDEDDEEDFEDDDEWED
modifications: (1)..(408) 98N-WASP
[2]
  Regulated By Which Upstream Regulators?: Cdc42, PIP2, Nck and Rac1
Arp2/3 complex
  Activate Arp2/3?: Yes

B3: FL-N-WASP: full-length N-WASP, SEQ ID NO:4; expressed TAP-tagged in human 293 cells (protein, listed as Homo sapiens)
chain: MSSVQQQPPPPRRVTNVGSLLLTPQENESLFTFLGKKCVTMSSAVVQLYAADRNCMWSKKCSGVACLVKDNPQRSYFLRIFDIKDGKLLWEQELYNNFVYNSPRGYFHTFAGDTCQVALNFANEEEAKKFRKAVTDLLGRRQRKSEKRRDPPNGPNLPMATVDIKNPEITTNRFYGPQVNNISHTKEKKKGKAKKKRLTKADIGTPSNFQHIGHVGWDPNTGFDLNNLDPELKNLFDMCGISEAQLKDRETSKVIYDFIEKTGGVEAVKNELRRQAPPPPPPSRGGPPPPPPPPHNSGPPPPPARGRGAPPPPPSRAPTAAPPPPPPSRPSVAVPPPPPNRMYPPPPPALPSSAPSGPPPPPPSVLGVGPVAPPPPPPPPPPPGPPPPPGLPSDGDHQVPTTAGNKAALLDQIREGAQLKKVEQNSRPVSCSGRDALLDQIRQGIQLKSVADGQESTPPTPAPTSGIVGALMEVMQKRSKAIHSSDEDEDEDDEEDFEDDDEWED
modifications: TAP tag; (1)..(505) FL-N-WASP
notes: expressed TAP-tagged in human 293 cells
Arp2/3 complex; without upstream regulators, FIG. 5
  stimulation of actin polymerization by the protein by itself: only weakly stimulate actin polymerization
[3]
  solubility of purified protein: completely soluble

B4: 105WASP: WASP deletion mutant lacking the WH1 domain, amino acids 105-501; SEQ ID NO:10 (protein, listed as Homo sapiens)
chain: LVYSTPTPFFHTFAGDDCQAGLNFADEDEAQAFRALVQEKIQKRNQRQSGDRRQLPPPPTPANEERRGGLPPLPLHPGGDQGGPPVGPLSLGLATVDIQNPDITSSRYRGLPAPGPSPADKKRSGKKKISKADIGAPSGFKHVSHVGWDPQNGFDVNNLDPDLRSLFSRAGISEAQLTDAETSKLIYDFIEDQGGLEAVRQEMRRQEPLPPPPPPSRGGNQLPRPPIVGGNKGRSGPLPPVPLGIAPPPPTPRGPPPPGRGGPPPPPPPATGRSGPLPPPPPGAGGPPMPPPPPPPPPPPSSGNGPAPPPLPPALVPAGGLAPGGGRGALLDQIRQGIQLNKTPGAPESSALQPPPQSSEGLVGALMHVMQKRSRAIHSSDEGEDQAGDEDEDDEWDD
modifications: (1)..(398) 105WASP
[2]
  Regulated By Which Upstream Regulators?: Cdc42, PIP2, Nck and Rac1
Arp2/3 complex
  Activate Arp2/3?: Yes

B5: 199 miniWASP: residues 199-308 and 415-501 of SEQ ID NO:2 (protein, listed as Homo sapiens)
chain: TVDIQNPDITSSRYRGLPAPGPSPADKKRSGKKKISKADIGAPSGFKHVSHVGWDPQNGFDVNNLDPDLRSLFSRAGISEAQLTDAETSKLIYDFIEDQGGLEAVRQEMRLPPALVPAGGLAPGGGRGALLDQIRQGIQLNKTPGAPESSALQPPPQSSEGLVGALMHVMQKRSRAIHSSDEGEDQAGDEDEDDEWD
modifications: (1)..(502) FL-WASP
[1]
  regulation by Cdc42: regulated by Cdc42
